Values joined by “and” are separate entries in the source; they are usually repeats but may differ in a detail not shown here. Equal entries are not always repeated. Where two headings read alike, the source gives them in different places.
Legend:
[1] = molecular target: WAVE1ΔN, minimal Arp2/3-activating fragment of human WAVE1 (PVCA) (human); test: FRET or BRET
[2] = molecular target: WAVE1ΔN, minimal Arp2/3-activating fragment of human WAVE1 (PVCA) (human); test: FRET or BRET; remark: listed apart in the source
[3] = molecular target: Native bovine (β, γ)-actin (bovine) (UniProt P60712); test: single-molecule / single-filament TIRF microscopy
[4] = molecular target: Native bovine (β, γ)-actin (bovine) (UniProt P60712); test: TIRF microscopy, KD calculated from rate constants
[5] = molecular target: Native bovine (β, γ)-actin (bovine) (UniProt P60712); test: single-filament TIRF microscopy

Substance	percent quenching of NPF donor fluorescence [1]	percent quenching of NPF donor fluorescence [2] [%]	fold change of kon against wild-type CP [3] [fold]	fold reduction of affinity against wild-type CP [4] [fold]	fold change of koff against wild-type CP [5] [fold]
Atto540Q-quencher labeled Acanthamoeba castellani actin monomers (natural protein)	59% and 69%	14	–	–	–
Capping protein lacking the last 23 amino acids of the β subunit (CPαβΔ23) (from UniProt P47753;P47757-2) (complex)	–	–	3	10	3
